Results taken from patent US20070081999A1.
Blank lines part the entries; values can stand above or below the substance they belong to.

How the values were obtained:
[1] = target: human von Willebrand factor (vWF) (human) (UniProt P04275); assay: cell-based or functional assay
[2] = target: human von Willebrand factor (vWF) (human) (UniProt P04275); assay: competition ELISA: inhibition of plasma or purified human vWF binding to coated human collagen type I
[3] = target: human placental collagen type I (fibrillar) (human) (UniProt P02452); assay: ex vivo ELISA on coated human collagen type I, baboon plasma 150 min after 300 µg/kg mAb 82D6A3, against the pre sample
Chain of human placental collagen type I (fibrillar) (human) (P02452 162-1218 limits assumed, chain 1 of 2): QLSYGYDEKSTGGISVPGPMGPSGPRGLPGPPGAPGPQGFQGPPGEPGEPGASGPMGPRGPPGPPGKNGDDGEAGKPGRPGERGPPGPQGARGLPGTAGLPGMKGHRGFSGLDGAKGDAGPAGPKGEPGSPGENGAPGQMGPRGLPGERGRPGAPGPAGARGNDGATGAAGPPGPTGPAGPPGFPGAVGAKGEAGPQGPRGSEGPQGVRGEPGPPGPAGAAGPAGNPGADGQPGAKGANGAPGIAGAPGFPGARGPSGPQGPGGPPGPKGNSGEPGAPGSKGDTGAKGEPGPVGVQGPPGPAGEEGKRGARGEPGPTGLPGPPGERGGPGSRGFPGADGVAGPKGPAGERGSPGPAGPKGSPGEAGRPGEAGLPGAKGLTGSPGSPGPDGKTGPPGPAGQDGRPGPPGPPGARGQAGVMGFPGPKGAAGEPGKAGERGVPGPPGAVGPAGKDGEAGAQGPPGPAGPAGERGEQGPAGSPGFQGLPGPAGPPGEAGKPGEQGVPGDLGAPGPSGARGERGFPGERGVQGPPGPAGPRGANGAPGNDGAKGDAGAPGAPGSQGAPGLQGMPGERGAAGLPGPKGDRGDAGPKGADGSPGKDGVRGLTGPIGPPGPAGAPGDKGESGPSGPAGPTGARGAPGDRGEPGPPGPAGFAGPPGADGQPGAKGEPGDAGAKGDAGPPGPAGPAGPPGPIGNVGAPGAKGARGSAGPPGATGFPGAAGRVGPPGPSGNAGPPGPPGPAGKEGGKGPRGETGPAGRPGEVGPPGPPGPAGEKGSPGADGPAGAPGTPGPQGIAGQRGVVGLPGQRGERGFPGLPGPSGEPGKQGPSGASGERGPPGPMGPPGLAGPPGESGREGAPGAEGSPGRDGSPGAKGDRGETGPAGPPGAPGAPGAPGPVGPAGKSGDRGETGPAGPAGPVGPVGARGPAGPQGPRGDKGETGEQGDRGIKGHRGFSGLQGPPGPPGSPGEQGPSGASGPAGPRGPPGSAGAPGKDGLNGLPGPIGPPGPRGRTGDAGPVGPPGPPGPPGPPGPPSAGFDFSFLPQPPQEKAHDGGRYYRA
Chain of human placental collagen type I (fibrillar) (human) (P08123 80-1119 limits assumed, chain 2 of 2, further chain): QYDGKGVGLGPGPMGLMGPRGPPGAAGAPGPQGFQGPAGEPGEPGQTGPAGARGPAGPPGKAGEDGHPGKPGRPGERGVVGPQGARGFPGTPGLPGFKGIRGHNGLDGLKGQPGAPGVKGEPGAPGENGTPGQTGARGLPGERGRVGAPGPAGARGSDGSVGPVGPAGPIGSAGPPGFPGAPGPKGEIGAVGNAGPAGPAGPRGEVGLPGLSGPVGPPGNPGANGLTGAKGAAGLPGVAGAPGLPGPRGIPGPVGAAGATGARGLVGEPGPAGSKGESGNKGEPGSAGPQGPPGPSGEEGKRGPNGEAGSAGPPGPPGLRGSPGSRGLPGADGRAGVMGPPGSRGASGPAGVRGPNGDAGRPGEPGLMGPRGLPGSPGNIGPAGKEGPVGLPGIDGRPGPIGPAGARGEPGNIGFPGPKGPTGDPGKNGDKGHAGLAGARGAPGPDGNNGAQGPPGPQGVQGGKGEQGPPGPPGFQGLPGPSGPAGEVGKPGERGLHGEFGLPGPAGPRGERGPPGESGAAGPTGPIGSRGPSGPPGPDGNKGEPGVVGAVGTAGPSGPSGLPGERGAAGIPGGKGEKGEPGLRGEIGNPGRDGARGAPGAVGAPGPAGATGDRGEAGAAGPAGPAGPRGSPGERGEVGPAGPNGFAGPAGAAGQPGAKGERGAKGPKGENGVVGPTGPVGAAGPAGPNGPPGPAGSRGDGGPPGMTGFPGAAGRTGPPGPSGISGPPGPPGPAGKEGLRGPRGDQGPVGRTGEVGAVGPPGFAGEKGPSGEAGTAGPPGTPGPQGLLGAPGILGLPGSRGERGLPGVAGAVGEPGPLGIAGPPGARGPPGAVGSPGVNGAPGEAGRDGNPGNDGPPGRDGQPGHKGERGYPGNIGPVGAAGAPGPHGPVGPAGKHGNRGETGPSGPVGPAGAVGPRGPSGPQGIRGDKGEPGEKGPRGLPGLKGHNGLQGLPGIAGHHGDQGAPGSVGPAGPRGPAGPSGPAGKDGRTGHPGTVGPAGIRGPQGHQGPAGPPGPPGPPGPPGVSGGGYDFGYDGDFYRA

[4] = target: human placental collagen type I (fibrillar) (human) (UniProt P02452); assay: ex vivo ELISA on coated human collagen type I, baboon plasma, 300 µg/kg mAb 82D6A3 group, 0 min (before dosing; pre sample set as 100%)
[5] = target: human placental collagen type I (fibrillar) (human) (UniProt P02452); assay: ex vivo ELISA on coated human collagen type I, baboon plasma 24 h after 300 µg/kg mAb 82D6A3, against the pre sample
[6] = target: human placental collagen type I (fibrillar) (human) (UniProt P02452); assay: ex vivo ELISA on coated human collagen type I, baboon plasma 30 min after 300 µg/kg mAb 82D6A3, against the pre sample
[7] = target: human placental collagen type I (fibrillar) (human) (UniProt P02452); assay: ex vivo ELISA on coated human collagen type I, baboon plasma 60 min after 600 µg/kg mAb 82D6A3, against the pre sample
[8] = target: human placental collagen type I (fibrillar) (human) (UniProt P02452); assay: ex vivo ELISA on coated human collagen type I, baboon plasma 300 min after 300 µg/kg mAb 82D6A3, against the pre sample
[9] = target: human placental collagen type I (fibrillar) (human) (UniProt P02452); assay: ex vivo ELISA on coated human collagen type I, baboon plasma 60 min after 300 µg/kg mAb 82D6A3, against the pre sample
[10] = target: human placental collagen type I (fibrillar) (human) (UniProt P02452); assay: ex vivo ELISA on coated human collagen type I, baboon plasma, 600 µg/kg mAb 82D6A3 group, 0 min (before dosing; pre sample set as 100%)
[11] = target: human placental collagen type I (fibrillar) (human) (UniProt P02452); assay: ex vivo ELISA on coated human collagen type I, baboon plasma, 100 µg/kg mAb 82D6A3 group, 0 min (before dosing; pre sample set as 100%)
[12] = target: human placental collagen type I (fibrillar) (human) (UniProt P02452); assay: ex vivo ELISA on coated human collagen type I, baboon plasma 24 h after 600 µg/kg mAb 82D6A3, against the pre sample
[13] = target: human placental collagen type I (fibrillar) (human) (UniProt P02452); assay: ex vivo ELISA on coated human collagen type I, baboon plasma 48 h after 300 µg/kg mAb 82D6A3, against the pre sample
[14] = target: human placental collagen type I (fibrillar) (human) (UniProt P02452); assay: ex vivo ELISA on coated human collagen type I, baboon plasma 60 min after 100 µg/kg mAb 82D6A3, against the pre sample
[15] = target: human placental collagen type I (fibrillar) (human) (UniProt P02452); assay: ex vivo ELISA on coated human collagen type I, baboon plasma 150 min after 600 µg/kg mAb 82D6A3, against the pre sample
[16] = target: human placental collagen type I (fibrillar) (human) (UniProt P02452); assay: ex vivo ELISA on coated human collagen type I, baboon plasma 30 min after 100 µg/kg mAb 82D6A3, against the pre sample
[17] = target: human placental collagen type I (fibrillar) (human) (UniProt P02452); assay: ex vivo ELISA on coated human collagen type I, baboon plasma 30 min after 600 µg/kg mAb 82D6A3, against the pre sample
[18] = target: human placental collagen type I (fibrillar) (human) (UniProt P02452); assay: ex vivo ELISA on coated human collagen type I, baboon plasma 300 min after 600 µg/kg mAb 82D6A3, against the pre sample
[19] = target: baboon von Willebrand factor (vWF) (baboon); assay: ex vivo occupancy ELISA, baboon plasma, 300 µg/kg group, 0 min (before dosing)
Chain of baboon von Willebrand factor (vWF) (baboon) (A0A096 entry or part of it limits assumed, form in doubt): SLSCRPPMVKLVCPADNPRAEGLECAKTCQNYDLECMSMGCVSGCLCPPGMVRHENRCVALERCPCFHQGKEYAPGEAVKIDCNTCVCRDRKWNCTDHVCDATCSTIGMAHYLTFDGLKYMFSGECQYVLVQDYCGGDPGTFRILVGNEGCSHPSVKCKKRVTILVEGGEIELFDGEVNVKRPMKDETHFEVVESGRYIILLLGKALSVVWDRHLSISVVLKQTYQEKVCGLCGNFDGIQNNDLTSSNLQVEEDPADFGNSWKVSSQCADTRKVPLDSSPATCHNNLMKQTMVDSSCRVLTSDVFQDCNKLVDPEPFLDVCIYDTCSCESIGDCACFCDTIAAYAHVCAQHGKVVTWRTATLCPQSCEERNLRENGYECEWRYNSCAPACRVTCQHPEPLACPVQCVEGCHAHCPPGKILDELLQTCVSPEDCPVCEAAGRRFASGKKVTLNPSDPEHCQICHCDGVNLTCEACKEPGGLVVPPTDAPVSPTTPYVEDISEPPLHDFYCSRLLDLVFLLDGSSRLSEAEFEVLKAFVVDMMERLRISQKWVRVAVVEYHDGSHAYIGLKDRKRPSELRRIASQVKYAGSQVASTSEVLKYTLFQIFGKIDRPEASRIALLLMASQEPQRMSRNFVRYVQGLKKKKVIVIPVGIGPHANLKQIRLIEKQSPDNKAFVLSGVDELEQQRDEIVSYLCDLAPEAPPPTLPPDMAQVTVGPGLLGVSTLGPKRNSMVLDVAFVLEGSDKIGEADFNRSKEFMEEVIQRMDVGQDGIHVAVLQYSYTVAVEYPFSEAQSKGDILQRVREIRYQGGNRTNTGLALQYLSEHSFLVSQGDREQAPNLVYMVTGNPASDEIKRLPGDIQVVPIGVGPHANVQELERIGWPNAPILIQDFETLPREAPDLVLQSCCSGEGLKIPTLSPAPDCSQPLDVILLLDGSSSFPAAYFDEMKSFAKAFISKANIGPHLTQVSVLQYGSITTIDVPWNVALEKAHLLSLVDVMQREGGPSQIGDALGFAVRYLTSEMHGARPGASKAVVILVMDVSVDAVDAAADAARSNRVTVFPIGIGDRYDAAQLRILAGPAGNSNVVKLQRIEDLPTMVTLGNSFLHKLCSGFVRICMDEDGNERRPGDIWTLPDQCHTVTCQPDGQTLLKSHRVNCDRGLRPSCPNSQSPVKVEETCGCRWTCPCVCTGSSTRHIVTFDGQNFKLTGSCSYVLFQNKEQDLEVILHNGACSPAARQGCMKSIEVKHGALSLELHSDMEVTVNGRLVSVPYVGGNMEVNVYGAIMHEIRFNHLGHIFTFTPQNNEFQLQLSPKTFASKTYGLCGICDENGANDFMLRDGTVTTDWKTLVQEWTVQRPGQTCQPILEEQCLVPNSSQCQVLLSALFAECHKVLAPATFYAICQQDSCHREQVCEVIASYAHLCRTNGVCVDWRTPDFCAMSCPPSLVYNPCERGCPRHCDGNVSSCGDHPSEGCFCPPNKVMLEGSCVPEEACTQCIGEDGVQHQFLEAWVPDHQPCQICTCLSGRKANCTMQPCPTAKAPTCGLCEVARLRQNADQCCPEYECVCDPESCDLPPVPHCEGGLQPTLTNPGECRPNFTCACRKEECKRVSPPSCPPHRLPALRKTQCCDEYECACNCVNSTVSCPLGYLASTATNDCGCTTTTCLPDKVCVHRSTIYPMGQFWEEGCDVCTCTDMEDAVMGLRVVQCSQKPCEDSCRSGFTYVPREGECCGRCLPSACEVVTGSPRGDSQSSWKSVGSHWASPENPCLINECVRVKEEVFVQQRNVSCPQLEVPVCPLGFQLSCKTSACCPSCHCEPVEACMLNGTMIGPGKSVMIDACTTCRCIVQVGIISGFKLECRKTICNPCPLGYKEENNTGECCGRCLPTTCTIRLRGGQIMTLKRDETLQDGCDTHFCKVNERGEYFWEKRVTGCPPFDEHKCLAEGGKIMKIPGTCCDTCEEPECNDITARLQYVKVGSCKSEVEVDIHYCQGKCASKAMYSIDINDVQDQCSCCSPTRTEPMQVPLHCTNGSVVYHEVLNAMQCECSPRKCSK

[20] = target: baboon von Willebrand factor (vWF) (baboon); assay: ex vivo occupancy ELISA, baboon plasma, 100 µg/kg, 60 min
[21] = target: baboon von Willebrand factor (vWF) (baboon); assay: ex vivo occupancy ELISA, baboon plasma, 300 µg/kg, 150 min
[22] = target: baboon von Willebrand factor (vWF) (baboon); assay: ex vivo ELISA on coated human collagen type I, baboon plasma 60 min after 600 µg/kg mAb 82D6A3
[23] = target: baboon von Willebrand factor (vWF) (baboon); assay: ex vivo ELISA on coated human collagen type I, baboon plasma 60 min after 300 µg/kg mAb 82D6A3
[24] = target: baboon von Willebrand factor (vWF) (baboon); assay: ex vivo occupancy ELISA, baboon plasma, 600 µg/kg group, 0 min (before dosing)
[25] = target: baboon von Willebrand factor (vWF) (baboon); assay: ex vivo occupancy ELISA, baboon plasma, 300 µg/kg, 24 h
[26] = target: baboon von Willebrand factor (vWF) (baboon); assay: ex vivo occupancy ELISA (vWF captured, bound mAb detected), baboon plasma, 100 µg/kg group, 0 min (before dosing)
[27] = target: baboon von Willebrand factor (vWF) (baboon); assay: ex vivo occupancy ELISA, baboon plasma, 600 µg/kg, 60 min
[28] = target: baboon von Willebrand factor (vWF) (baboon); assay: ex vivo occupancy ELISA, baboon plasma, 600 µg/kg, 150 min
[29] = target: baboon von Willebrand factor (vWF) (baboon); assay: ex vivo occupancy ELISA, baboon plasma, 300 µg/kg, 30 min
[30] = target: baboon von Willebrand factor (vWF) (baboon); assay: ex vivo occupancy ELISA, baboon plasma, 300 µg/kg, 300 min
[31] = target: baboon von Willebrand factor (vWF) (baboon); assay: ex vivo occupancy ELISA, baboon plasma, 300 µg/kg, 48 h
[32] = target: baboon von Willebrand factor (vWF) (baboon); assay: ex vivo occupancy ELISA, baboon plasma, 600 µg/kg, 30 min
[33] = target: baboon von Willebrand factor (vWF) (baboon); assay: ex vivo ELISA on coated human collagen type I, baboon plasma 1 hour after 100 µg/kg mAb 82D6A3
[34] = target: baboon von Willebrand factor (vWF) (baboon); assay: ex vivo vWF-occupancy ELISA on baboon plasma against 82D6A3 plasma level
[35] = target: baboon von Willebrand factor (vWF) (baboon); assay: ex vivo occupancy ELISA, baboon plasma, 600 µg/kg, 24 h
[36] = target: baboon von Willebrand factor (vWF) (baboon); assay: ex vivo occupancy ELISA, baboon plasma, 600 µg/kg, 300 min
[37] = target: baboon von Willebrand factor (vWF) (baboon); assay: ex vivo occupancy ELISA, baboon plasma, 300 µg/kg, 60 min
[38] = target: baboon von Willebrand factor (vWF) (baboon); assay: ex vivo occupancy ELISA, baboon plasma, 100 µg/kg, 30 min

platelet deposition onto human collagen type I in flow, shear rate 1300 s^-1 [1]: 10 µg/mL
IC50 [2]: 1 µg/mL
Substance: 82D6A3 F(ab) fragment (Fab)

collagen binding (%) [3]: 4%
collagen binding (%) [4]: 101%
collagen binding (%) [5]: 91%
collagen binding (%) [6]: 4%
collagen binding (%) [7]: 3.5%
collagen binding (%) [8]: 4%
collagen binding (%) [9]: 4%
collagen binding (%) [10]: 100%
collagen binding (%) [11]: 101%
collagen binding (%) [12]: 45%
collagen binding (%) [13]: 93%
collagen binding (%) [14]: 69%
collagen binding (%) [15]: 3.52%
collagen binding (%) [16]: 64%
collagen binding (%) [17]: 4%
collagen binding (%) [18]: 4%
Substance: baboon von Willebrand factor (vWF), A0A096N8H2 764-2813

vWF occupancy (%) [19]: 2.3%
platelet deposition onto human collagen type I in flow, shear rate 1300 s^-1 [1]: 1 to 5 µg/mL
vWF occupancy (%) [20]: 80%
vWF occupancy (%) [21]: 101%
IC50 [2]: 0.02 µg/mL
ex vivo inhibition of the vWF-collagen interaction (%) [22]: 96%
ex vivo inhibition of the vWF-collagen interaction (%) [23]: 96%
vWF occupancy (%) [24]: 6.9%
vWF occupancy (%) [25]: 74%
vWF occupancy (%) [26]: 2.3%
vWF occupancy (%) [27]: 96%
vWF occupancy (%) [28]: 97%
vWF occupancy (%) [29]: 102%
vWF occupancy (%) [30]: 94%
vWF occupancy (%) [31]: 63%
vWF occupancy (%) [32]: 96%
ex vivo inhibition of the vWF-collagen binding (%) [33]: 31%
plasma level from which vWF-occupancy is maximal [34]: 1 µg/mL
vWF occupancy (%) [35]: 88%
vWF occupancy (%) [36]: 97%
vWF occupancy (%) [37]: 99%
vWF occupancy (%) [38]: 80%
Substance: murine anti-human vWF monoclonal antibody mAb 82D6A3
